Experimental data: patent publication US20150065381A1
Values joined by “and” are separate entries in the source; they are usually repeats but may differ in a detail not shown here. Equal entries are not always repeated.

Experiments:
[1] = molecular target: HIV-1 envelope of gp160 clone B-Acute-009-c08 (HIV-1); experiment: capture ELISA, original data
[2] = molecular target: HIV-1 JRFL envelope (HIV-1); experiment: capture ELISA, plate 2, mAb 2.5 ug/ml
[3] = molecular target: HIV-1 envelope of gp160 clone B-Chronic-014.c02 (HIV-1); experiment: capture ELISA, plate 2, mAb 2.5 ug/ml
[4] = molecular target: HIV-1 envelope clone F1-002.c16 (multiclade gp160 clone panel) (HIV-1); experiment: capture ELISA, plate 2, mAb 2.5 ug/ml
[5] = molecular target: HIV-1 envelope clone G-011.c02 (multiclade gp160 clone panel) (HIV-1); experiment: capture ELISA, plate 2, mAb 2.5 ug/ml
[6] = molecular target: HIV-1 envelope of gp160 clone B-Acute-009-c08 (HIV-1); experiment: capture ELISA, plate 2, mAb 2.5 ug/ml
[7] = molecular target: HIV-1 envelope clone BF-002.c05 (multiclade gp160 clone panel) (HIV-1); experiment: capture ELISA, plate 2, mAb 2.5 ug/ml
[8] = molecular target: BG505 envelope (gp120 monomer released from lysed pseudovirus) (HIV-1); experiment: antigen capture ELISA, mAb 7.5 ug/ml, plate 1
[9] = molecular target: aMLV envelope (from lysed pseudovirus); experiment: antigen capture ELISA, mAb 7.5 ug/ml, plate 1
[10] = molecular target: JRFL envelope (gp120 monomer released from lysed pseudovirus) (HIV-1) (UniProt P20871); experiment: antigen capture ELISA, mAb 2.5 ug/ml, plate 2
[11] = molecular target: 16055 envelope (gp120 monomer released from lysed pseudovirus) (HIV-1); experiment: antigen capture ELISA, mAb 2.5 ug/ml, plate 2
[12] = molecular target: JRFL envelope (gp120 monomer released from lysed pseudovirus) (HIV-1) (UniProt P20871); experiment: antigen capture ELISA, mAb 2.5 ug/ml, plate 1
[13] = molecular target: 16055 envelope (gp120 monomer released from lysed pseudovirus) (HIV-1); experiment: antigen capture ELISA, mAb 2.5 ug/ml, plate 1
[14] = molecular target: JRFL envelope (gp120 monomer released from lysed pseudovirus) (HIV-1) (UniProt P20871); experiment: antigen capture ELISA, mAb 0.3 ug/ml, plate 2
[15] = molecular target: 16055 envelope (gp120 monomer released from lysed pseudovirus) (HIV-1); experiment: antigen capture ELISA, mAb 0.3 ug/ml, plate 2
[16] = molecular target: JRFL envelope (gp120 monomer released from lysed pseudovirus) (HIV-1) (UniProt P20871); experiment: antigen capture ELISA, mAb 7.5 ug/ml, plate 1
[17] = molecular target: 16055 envelope (gp120 monomer released from lysed pseudovirus) (HIV-1); experiment: antigen capture ELISA, mAb 7.5 ug/ml, plate 1
[18] = molecular target: JRFL envelope (gp120 monomer released from lysed pseudovirus) (HIV-1) (UniProt P20871); experiment: antigen capture ELISA, mAb 0.3 ug/ml, plate 1
[19] = molecular target: 16055 envelope (gp120 monomer released from lysed pseudovirus) (HIV-1); experiment: antigen capture ELISA, mAb 0.3 ug/ml, plate 1
[20] = molecular target: JRFL envelope (gp120 monomer released from lysed pseudovirus) (HIV-1) (UniProt P20871); experiment: antigen capture ELISA, mAb 0.8 ug/ml, plate 2
[21] = molecular target: 16055 envelope (gp120 monomer released from lysed pseudovirus) (HIV-1); experiment: antigen capture ELISA, mAb 0.8 ug/ml, plate 2
[22] = molecular target: JRFL envelope (gp120 monomer released from lysed pseudovirus) (HIV-1) (UniProt P20871); experiment: antigen capture ELISA, mAb 7.5 ug/ml, plate 2
[23] = molecular target: 16055 envelope (gp120 monomer released from lysed pseudovirus) (HIV-1); experiment: antigen capture ELISA, mAb 7.5 ug/ml, plate 2
[24] = molecular target: JRFL envelope (gp120 monomer released from lysed pseudovirus) (HIV-1) (UniProt P20871); experiment: antigen capture ELISA, mAb 0.8 ug/ml, plate 1
[25] = molecular target: 16055 envelope (gp120 monomer released from lysed pseudovirus) (HIV-1); experiment: antigen capture ELISA, mAb 0.8 ug/ml, plate 1

Row | Substance | ELISA OD [1] | ELISA OD [2] | ELISA OD [3] | ELISA OD [4] | ELISA OD [5] | ELISA OD [6] | ELISA OD [7] | ELISA OD [8] | ELISA OD [9] | ELISA OD [10] | ELISA OD [11] | ELISA OD [14] | ELISA OD [15] | ELISA OD [18] | ELISA OD [19] | ELISA OD [20] | ELISA OD [21] | ELISA OD [22] | ELISA OD [23] | ELISA OD [24] | also measured
1 | PGT151 (antibody) | 0.264 OD | 0.098 OD and 0.072 OD | 0.203 OD | 0.114 OD | 0.113 OD | 0.128 OD | 0.174 OD | 0.094 OD | 0.098 OD and 0.075 OD | – | – | – | – | – | – | – | – | – | – | – | –
2 | PGV04 (antibody) | – | – | 4 OD | 0.303 OD | 0.712 OD | 0.155 OD | 4 OD | 1.37 OD | 0.092 OD and 0.074 OD | 1.55 OD and 1.51 OD | 0.126 OD and 0.095 OD | 0.395 OD and 0.44 OD | 0.079 OD and 0.122 OD | 0.344 OD and 0.34 OD | 0.054 OD and 0.065 OD | 0.796 OD and 0.763 OD | 0.073 OD and 0.071 OD | 2.49 OD and 2.36 OD | 0.108 OD and 0.113 OD | 0.673 OD and 0.722 OD | ELISA OD [12]: 1.17 OD and 1.25 OD; ELISA OD [13]: 0.066 OD and 0.071 OD; ELISA OD [16]: 1.94 OD and 1.84 OD; ELISA OD [17]: 0.071 OD and 0.068 OD; ELISA OD [25]: 0.055 OD and 0.059 OD
3 | PGT145 (antibody) | 0.219 OD | 0.075 OD and 0.058 OD | 0.066 OD | 0.456 OD | 0.07 OD | 0.11 OD | 0.297 OD | 0.104 OD | 0.098 OD and 0.082 OD | – | – | – | – | – | – | – | – | – | – | – | –
4 | PG16 (antibody) | – | – | 0.374 OD | 0.349 OD | 0.07 OD | 0.07 OD | 0.927 OD | 0.12 OD | 0.103 OD and 0.072 OD | 0.081 OD and 0.096 OD | 0.195 OD and 0.122 OD | 0.065 OD and 0.075 OD | 0.107 OD and 0.112 OD | 0.063 OD and 0.097 OD | 0.101 OD and 0.122 OD | 0.063 OD and 0.061 OD | 0.156 OD and 0.105 OD | 0.111 OD and 0.136 OD | 0.155 OD and 0.143 OD | 0.064 OD and 0.071 OD | ELISA OD [25]: 0.129 OD and 0.11 OD
5 | PG9 (antibody) | – | 0.058 OD and 0.051 OD | 0.986 OD | – | 0.052 OD | 0.07 OD | – | 0.428 OD | 0.084 OD and 0.072 OD | – | – | – | – | – | – | – | – | – | – | – | –
